This note sets out measurements from publication PMC11316097 (Nature Communications, 2024).

The target of the assay is T1, bovine cyclin A2 residues 169-430 (bovine, UniProt P30274 169-430).
T1 construct: cyclin A2, bovine, residues 169-430 of UniProt P30274 (equivalent to human cyclin A residues 171-432, UniProt P20248)
The assay is described as follows: cryo-EM structure; purified pY15pT160CDK2, cyclin A and CDC25A(C431S) mixed 1:1.5:2, 1 hr on ice, gel filtration (Superdex S200) in 40 mM HEPES, 200 mM NaCl, 1 mM DTT, pH 7.4; grids with CHAPS; 2.7 Å. The note with it: both partners purified. In general terms: In gel filtration, larger molecules generally elute earlier.

T1 sequence (P30274 169-430): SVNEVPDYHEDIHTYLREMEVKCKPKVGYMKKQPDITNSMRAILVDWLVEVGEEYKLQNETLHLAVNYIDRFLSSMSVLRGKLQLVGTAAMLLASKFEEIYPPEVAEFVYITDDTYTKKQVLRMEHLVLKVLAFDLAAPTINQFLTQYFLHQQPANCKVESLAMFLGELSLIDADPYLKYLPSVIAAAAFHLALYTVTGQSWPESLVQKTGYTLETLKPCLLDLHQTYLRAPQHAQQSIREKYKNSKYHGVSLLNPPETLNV

B1: human CDC25A residues 335-524 (catalytic domain and C-terminal tail), Cys431Ser (domain or fragment, UniProt P30304 335-524, looked up)
chain: RDLIGDFSKGYLFHTVAGKHQDLKYISPEIMASVLNGKFANLIKEFVIIDCRYPYEYEGGHIKGAVNLHMEEEVEDFLLKKPIVPTDGKRVIVVFHSEFSSERGPRMCRYVRERDRLGNEYPKLHYPELYVLKGGYKEFFMKCQSYCEPPSYRPMHHEDFKEDLKKFRTKSRTWAGEKSKREMYSRLKKL
notes: Form used for cryo-EM and HDX-MS; also called CDC25A(C431S); CDC25A(Cys431Ser)
Regarding B1, the binding result is given as “binds”.
